Experiments:
Experiment in all cases: cell_activity
[1] = test system: TALEN 101234 (HD half repeat) (synthetic (Xanthomonas TALE)); conditions: paired with 101231
[2] = test system: TALEN 101235 (HD half repeat) (synthetic (Xanthomonas TALE)); conditions: paired with 101238
[3] = test system: TALEN 101236 (HD half repeat) (synthetic (Xanthomonas TALE)); conditions: paired with 101238; 2.5% with 101237
[4] = test system: TALEN 101239 (HD half repeat) (synthetic (Xanthomonas TALE)); conditions: paired with 101167; 11.2% with 101240
[5] = test system: TALEN 101151 (synthetic (Xanthomonas TALE)); conditions: paired with 101233
[6] = test system: TALEN 101238 (HD half repeat) (synthetic (Xanthomonas TALE)); conditions: paired with 101236; 8.1% with 101235
[7] = test system: TALEN 101237 (NK half repeat) (synthetic (Xanthomonas TALE)); conditions: paired with 101236
[8] = test system: TALEN 101167 (synthetic (Xanthomonas TALE)); conditions: paired with 101239; 5.3% with 101166
[9] = test system: TALEN 101240 (HD half repeat) (synthetic (Xanthomonas TALE)); conditions: paired with 101239; 10.7% with 101166
[10] = test system: TALEN 101166 (synthetic (Xanthomonas TALE)); conditions: paired with 101240; 5.3% with 101167
[11] = test system: TALEN 101233 (NI half repeat) (synthetic (Xanthomonas TALE)); conditions: paired with 101151
[12] = test system: TALEN 101230 (HD half repeat) (synthetic (Xanthomonas TALE)); conditions: paired with 101156
[13] = test system: TALEN 101231 (NI half repeat) (synthetic (Xanthomonas TALE)); conditions: paired with 101234
[14] = test system: TALEN 101156 (synthetic (Xanthomonas TALE)); conditions: paired with 101230
[15] = test system: C1 TALEN 101380 (synthetic (Xanthomonas TALE)); conditions: paired with 101381
[16] = test system: C1 TALEN 101371 (synthetic (Xanthomonas TALE)); conditions: paired with 101370; site given 3'-5', reversed here
[17] = test system: C1 TALEN 101378 (synthetic (Xanthomonas TALE)); conditions: paired with 101379
[18] = test system: RPD1 TALEN 101393 (synthetic (Xanthomonas TALE)); conditions: paired with 101389; site given 3'-5', reversed here
[19] = test system: RPD1 TALEN 101391 (synthetic (Xanthomonas TALE)); conditions: paired with 101390; site given 3'-5', reversed here
[20] = test system: C1 TALEN 101370 (synthetic (Xanthomonas TALE)); conditions: paired with 101371
[21] = test system: RPD1 TALEN 101388 (synthetic (Xanthomonas TALE)); conditions: paired with 101391; Neuro 2A
[22] = test system: RPD1 TALEN 101389 (synthetic (Xanthomonas TALE)); conditions: paired with 101393; Neuro 2A
[23] = test system: C1 TALEN 101381 (synthetic (Xanthomonas TALE)); conditions: paired with 101380; site given 3'-5', reversed here
[24] = test system: RPD1 TALEN 101390 (synthetic (Xanthomonas TALE)); conditions: paired with 101391; printed site lacks one A relative to the locus

Q: With “ACCGCTGTGCTCCTGGC (double strand) [101234 site]” as the sequence, how does the activity [1] read?
A: Its activity is 10 % NHEJ.

Q: With “ACGCCGTGGAAAGGC (double strand) [101235 site]” as the sequence, how does the activity [2] read?
A: Its activity is 8.1 % NHEJ.

Q: How did the activity [3] turn out when “ACGCCGTGGAAAGGCC (double strand) [101236 site]” was run?
A: Its activity is 9.2 % NHEJ.

Q: How did the activity [4] turn out when “ATGAGCGGCCCCGCC (double strand) [101239 site]” was run?
A: Its activity is 13.1 % NHEJ.

Q: For “CCGCACCCCCAGCT (double strand) [101151 site]”, which activity [5] is on record?
A: Its activity is 13.3 % NHEJ.

Q: With “CGGGGATGATCTAC (double strand) [101238 site]” as the sequence, how does the activity [6] read?
A: Its activity is 9.2 % NHEJ.

Q: With “CGGGGATGATCTACGG (double strand) [101237 site]” as the sequence, how does the activity [7] read?
A: The activity was 2.5 % NHEJ.

Q: “CGTTGCCCCCGCCCT (double strand) [101167 site]” was tested. Which activity [8] did it give?
A: Its activity is 13.1 % NHEJ.

Q: For “GAATCGTTGCCCCCGC (double strand) [101240 site]”, which activity [9] is on record?
A: The activity was 11.2 % NHEJ.

Q: With “GAGCGGCCCCGCCCGT (double strand) [101166 site]” as the sequence, how does the activity [10] read?
A: Its activity is 10.7 % NHEJ.

Q: With “GCTCCTGGCCCTTGCA (double strand) [101233 site]” as the sequence, how does the activity [11] read?
A: The activity was 13.3 % NHEJ.

Q: With “GGCACTCCGCACCCC (double strand) [101230 site]” as the sequence, how does the activity [12] read?
A: The activity was 4.9 % NHEJ.

Q: Which activity [13] does the source give for “GGCACTCCGCACCCCCA (double strand) [101231 site]” here?
A: The activity was 10 % NHEJ.

Q: How did the activity [14] turn out when “TACCGCTGTGCTCCT (double strand) [101156 site]” was run?
A: The activity was 4.9 % NHEJ.

Q: Which activity (relative DLSSA units) [15] does the source give for “TCCTACGACGAGGAGGAT (double strand) [101380 site]” here?
A: Its activity (relative DLSSA units) is 10.3.

Q: Which activity (relative DLSSA units) [16] does the source give for “TCGTCCACGCCCCTCTCT (double strand) [101371 site]” here?
A: Its activity (relative DLSSA units) is 5.

Q: With “TGAACTACCTCCGGCCC (double strand) [101378 site]” as the sequence, how does the activity (relative DLSSA units) [17] read?
A: Its activity (relative DLSSA units) is 7.1.

Q: Which activity (relative DLSSA units) [18] does the source give for “TGAACTAGTGGGAGTGTT (double strand) [101393 site]” here?
A: Its activity (relative DLSSA units) is 9.9.

Q: For “TGGGAGTGTTGCAT (double strand) [101391 site]”, which activity (relative DLSSA units) [19] is on record?
A: Its activity (relative DLSSA units) is 9.7.

Q: For “TGGGGAGGAGGGCGTGCT (double strand) [101370 site]”, which activity (relative DLSSA units) [20] is on record?
A: Its activity (relative DLSSA units) is 5.

Q: For “TTATTTGAAGAAACT (double strand) [101388 site]”, which activity (relative DLSSA units) [21] is on record?
A: The activity (relative DLSSA units) was 7.6.

Q: For “TTATTTGAAGAAACTAT (double strand) [101389 site]”, which activity (relative DLSSA units) [22] is on record?
A: The activity (relative DLSSA units) was 9.9.

Q: For “TTGCCGAGGAGCCTGT (double strand) [101381 site]”, which activity (relative DLSSA units) [23] is on record?
A: The activity (relative DLSSA units) was 10.3.

Q: Which activity (relative DLSSA units) [24] does the source give for “TTTGAAGAACTATATT (double strand) [101390 site]” here?
A: Its activity (relative DLSSA units) is 9.7.

From patent publication US20110301073
